Reference: CN113121684A (TIANJIN JIKUN PHARMACEUTICAL TECH CO LTD, dated 2021)

Biological target: T1, 人源FSTL1蛋白 (卵泡抑素样蛋白1, Follistatin-like 1) (human, UniProt Q12841 21-308, limits assumed)
T1 construct: Soluble protein, used as analyte in SPR and as labelled ligand in MST; The construct is not described; also called 抗原; 靶点蛋白
T1 sequence (looked up): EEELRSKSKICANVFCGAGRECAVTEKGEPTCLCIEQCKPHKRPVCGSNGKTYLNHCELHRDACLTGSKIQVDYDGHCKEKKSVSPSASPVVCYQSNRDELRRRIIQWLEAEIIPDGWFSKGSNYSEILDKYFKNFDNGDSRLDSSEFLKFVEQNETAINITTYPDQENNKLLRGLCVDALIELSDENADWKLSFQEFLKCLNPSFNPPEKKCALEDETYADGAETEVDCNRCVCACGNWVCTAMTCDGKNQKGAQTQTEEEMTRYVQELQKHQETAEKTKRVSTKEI
Test: SPR (Biacore T200), antibody amine-coupled on CM5 chip, FSTL1 protein injected

Kd: 6.17 nM
B1: 人源FSTL1中和性抗体JK07 (全长IgG) (antibody, V domains shown)
VH: QVQLVQSGAEVKKPGSTVKVSCKSSEGTFNNYGISWIRQAPGQGLEWMGGVIPIIGIGNFPQKFQDRVTMTADKFTGTAYMELSSLRSEDTAVYYCARHLGGRNSYDVFDIWGQGTLVTVSS
VL: EIVLTQSPLSLPVTLGQTASISCRSSHSLVQSNGNTYLTWFQQRPGQSPRRLIYKVSSRDSGVPDRFSGSGSGTDFTLKISRVEAEDVGVYYCMQARQTPWTFGQGTKVEIKR
notes: also called JK07抗体
